Results: PMC3417467
Where two headings read alike, the source gives them in different places.

B1: cyclopeptide-3 c-(-FEaNE-) (peptide)
peptide: FEANE
HELM: PEPTIDE1{F.E.[dA].N.E}$PEPTIDE1,PEPTIDE1,1:R1-5:R2$$$V2.0
SMILES: C[C@H]1NC(=O)[C@H](CCC(=O)O)NC(=O)[C@H](Cc2ccccc2)NC(=O)[C@H](CCC(=O)O)NC(=O)[C@H](CC(N)=O)NC1=O
B2: cyclopeptide-7 c-(-RGDlA-) (peptide)
peptide: RGDLA
HELM: PEPTIDE1{R.G.D.[dL].A}$PEPTIDE1,PEPTIDE1,1:R1-5:R2$$$V2.0
SMILES: CC(C)C[C@H]1NC(=O)[C@H](CC(=O)O)NC(=O)CNC(=O)[C@H](CCCNC(=N)N)NC(=O)[C@H](C)NC1=O
B3: cyclopeptide-4 c-(-FEAnE-) (peptide)
peptide: FEANE
HELM: PEPTIDE1{F.E.A.[dN].E}$PEPTIDE1,PEPTIDE1,1:R1-5:R2$$$V2.0
SMILES: C[C@@H]1NC(=O)[C@H](CCC(=O)O)NC(=O)[C@H](Cc2ccccc2)NC(=O)[C@H](CCC(=O)O)NC(=O)[C@@H](CC(N)=O)NC1=O
B4: cyclopeptide-5 c-(-FEANe-) (peptide)
peptide: FEANE
HELM: PEPTIDE1{F.E.A.N.[dE]}$PEPTIDE1,PEPTIDE1,1:R1-5:R2$$$V2.0
SMILES: C[C@@H]1NC(=O)[C@H](CCC(=O)O)NC(=O)[C@H](Cc2ccccc2)NC(=O)[C@@H](CCC(=O)O)NC(=O)[C@H](CC(N)=O)NC1=O
B5: cyclopeptide-1 c-(-fEANE-) (peptide)
peptide: FEANE
HELM: PEPTIDE1{[dF].E.A.N.E}$PEPTIDE1,PEPTIDE1,1:R1-5:R2$$$V2.0
SMILES: C[C@@H]1NC(=O)[C@H](CCC(=O)O)NC(=O)[C@@H](Cc2ccccc2)NC(=O)[C@H](CCC(=O)O)NC(=O)[C@H](CC(N)=O)NC1=O
B6: linear peptide 6 (…) (peptide)
peptide: ANFEANELFFISEDV
B7: cyclopeptide-2 c-(-FeANE-) (peptide)
peptide: FEANE
HELM: PEPTIDE1{F.[dE].A.N.E}$PEPTIDE1,PEPTIDE1,1:R1-5:R2$$$V2.0
SMILES: C[C@@H]1NC(=O)[C@@H](CCC(=O)O)NC(=O)[C@H](Cc2ccccc2)NC(=O)[C@H](CCC(=O)O)NC(=O)[C@H](CC(N)=O)NC1=O

Key:
Assay in all cases: competitive cell adhesion assay
[1] = biological target: integrins on WM-115 cells (mainly integrin α5β1, αVβ3, and αVβ5)
[2] = biological target: integrins on WM-115 cells (mainly integrin α5β1, αVβ3, and αVβ5); remark: listed apart in the source
[3] = biological target: integrins on WM-115 cells (mainly integrin α5β1, αVβ3, and αVβ5); remark: listed apart in the source
[4] = biological target: integrins on WM-115 cells (mainly integrin α5β1, αVβ3, and αVβ5); remark: listed apart in the source
[5] = biological target: integrins on WM-115 cells (mainly integrin α5β1, αVβ3, and αVβ5); remark: listed apart in the source
[6] = biological target: integrins on WM-115 cells (mainly integrin α5β1, αVβ3, and αVβ5); remark: listed apart in the source

Binder | IC50 [1] [µM] | IC50 [2] [µM] | IC50 [3] [µM] | IC50 [4] [µM] | IC50 [5] [µM] | IC50 [6] [µM]
B1 | > 1000 | > 1000 | > 1000 |  |  | 
B2 |  |  | 2.39 | 1.65 | 0.88 | 0.67
B3 | > 1000 | > 1000 | > 1000 |  |  | 
B4 | > 1000 | > 1000 | > 1000 |  |  | 
B5 | 43 to 340 | > 1000 | > 1000 |  |  | 
B6 | 9 | 239 | > 1000 |  |  | 
B7 | 30 to 530 | 54 to 430 | > 1000 |  |  | 
